Experimental data taken from the nanobody polyreactivity screen of Harvey et al. (2022).

Experiment: yeast display, Sf9 membrane polyspecificity reagent, FACS + sequencing; frameworks hold sequencing errors
Method in brief: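 Galactose-induced (36–48 hours) yeast carrying a synthetic nanobody display library were exposed to 10% biotinylated, detergent-solubilized Sf9 membrane reagent at 4 °C for 1 hour. FACS followed streptavidin microbead enrichment, using low and high (top ~1%) gates for expression (anti-HA) and reagent binding (streptavidin). Colony PCR, MiSeq 2 × 250 sequencing and CDR-length filtering followed. Labels for polyreactivity reflect the gate of origin.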

Row | Sequence | polyreactivity (PSR sort gate)
1 | QVQLVESGGGLVQAGGSLRLSCAASGRIFNYYTMGWYRQAPGKEREFVAAISRSGGSTFYADSVKGRFTISRDNAKNTVYLQMNSLKPEDTAVYYCAARSYSRPDGGYVQLDYWGQGTQVTVSS | high polyreactivity
2 | QVQLGESGGGLVQAGGSLRLSCAASGLTFDPNAMGWYRQAPGKERELVATITQTDGSTYYADSVKGRFTISRDNAKNTVYLQMNSLKPEDTAVYYCAVDVDEPRYRRPFHHDYWGQGTQVTVSS | low polyreactivity
3 | QVQLVESGGGLVKAGGSLRLSCAASGITFHDYPMGWYRQAPGKERELVAAISSGGSTNYADSVKGRFTISRDNEKNTVYLQLNSLKPEDTAVYYCAAKYTDIVARLSLYYYWGQGTQVTVSS | low polyreactivity
4 | QVQLVESGGGLVQAGGSLRLSCAASGSIFSYYAMGWYRQAPGKERELVAAITWSGTRTYYADSVKGRFTISRDNAKNTVYLQMNSLKPEDTAVSYCAADSSIRDAYWGQGTQVTVSS | low polyreactivity
5 | QVQLVESGGGLVQAGGSLRLSCAASGFIFGLNAMGWYRQAPGKERELVAVIAFSGGSTYYADSVKGRFTISRDHAKNTVYLQMNSLKPEDTAVYYCNAVTRYPHPREYDYWGQGTQVTVSS | high polyreactivity
6 | QVQLVESGGALVQAGGSLRLSCAASGSIFRWTAMGWYRQAPGKERVLVAAISKSGASTYYADSVKGRFTISRDNAKNTVYLQMNSLKPEDTAVYYCNRVYLGYFRYDYWGQGTQVTVSS | high polyreactivity
7 | QVQLVESAGGLFQEGGSLRVSCAASGSTFSYYDMGGYRQAPGKERELVAAINSTGITTYADSVKGRFTISRDNAKNTVYLQMNSLKPEDTAVYYCAAYHNYWGPYVWEEDYWGQGTQVTVSS | low polyreactivity
8 | QVQLVESGGGLVQAGGSLRLICAASGSTFAQNTMGWYRQAPGKERELVATISDGGGSTYYADSVKGRFTISRDNAKNTVYLQMNSLKPEDTSVYYCNTDRFWPSDFWGQGTQVTVSS | low polyreactivity
9 | QVQLVESGGGLVQAGGSLRLSCAASGFILPIYAMGWYRQAPGKEREFVAAITWTGGSTYYADSVKGRFTISRDNANNTVYLQMNSLKPEDTAVYYCNAEGRSYYYIIYDFWGQGTQVTVSS | high polyreactivity
10 | QVQILESGGWLVQAGGSLRLSCASSGRTFDVYAMGWYRQAPGKERELVAAISWGAGNTYYADSVKGRFTISRDNAKNTVYLQMNSLKPEDTAVYYCAAEDDWSEYDYWGQGTQVTVSS | high polyreactivity
11 | QVQLVESGGGLVQAGGSLRLSCAASGRTFALYTMGWYRQAPGKVRELVAAINWSGTSTYYADSVKGRFTISRDNAKNTVYLQMNSLKPEDTAVYYCNRDPRKYGKLDYWGQGTQVTVSS | low polyreactivity
12 | QDQLVESGGGLVQAGGSRRLSCAASGSIFIYAMGWYRQAPGNERELVATIDSGGSTNYADSVKGRFTISRDNAKNTFYLQMNSLKPEDTAVYYFAARPYTTYHYVDDYWGQGTQVTVSS | high polyreactivity
13 | QVQLVESGGGIVQAGGSLRLSCAASGRIIRYYAMGWYRQAPGKERELVAAITRGGSTNYADSVKGRFTISRDNAKNTVYLLMNSLKPEDTAVYYCATRQSWYPRWMDYWGQGTQVTVSS | high polyreactivity
14 | QVQLVESGGGLVQAGGSLRLSCAASGFIITTYAMGWYRQAPGKERELVAGISSSGGRTYADSVKGRFTISRDNAKNTVYLQMNSLKPEDTAVYYCAREQWRTLVQTDKYKYDYWGQGTQVTVSS | high polyreactivity
15 | QVQLVESGGGLVQAGGSLRLSCAASGRTFDAYTMGWYRQAPGKEMELVAAITFSGGNTYYADSVKGRFIISRDNAKNTVYLQMNSLKPEDTAVYYCAARHWIYSTDYSTYYEYDSWGQGTQVTVSS | low polyreactivity
16 | QVQLVESGGGLVLAGGSLRLRCAASGSNFYVNAMGWYRQAPWKEMELVAAISRRGGSTYYADSVKGRFTISRDNAKNTVYLQMNSLKPEDTAVYYCNKAMRGQAPSGPEYDYWGQGTQVTVSS | high polyreactivity
17 | QVQLVESGGGLVQAGGSLRLSCAASARIFVPYARGWYRQAPGKERELVAAIRKSGGSTYYADSVKGRFTISRDNAKNTVYLQMNSLKPDVTAVYYCAASTLGMVQTQPGKRKTYLYGYWGQGTQVTVSS | high polyreactivity
18 | QVQLVESGGGLVQAGGSLRLSCAASGLTLETNAMGWYRQAPGKERELVAGITYSGGTTYYADSVKGRFTISRDNAKNTVYLQMNSLKPEDTAVYYCNAQERRVRDYDYWGQGTEVTVSS | low polyreactivity
19 | QVQLVESGGGLVQAGGSLRFICAASGRIFRRYLMGWYRQAPGKERELVARFRIRDSNTYYADSVKGRFTISRDNAKNTVYLQMNSLKPEDTAVYNCAVVANYVYSKYDYWGQGTQVTVSS | high polyreactivity
20 | QVQLVESGGGLVHAGGSLRLSCAASGFTFIRYAMGWYRQAPGKERELVAAIRGTGTSTYYADSVKGRFTISRDNAKNTVYFQMNSLKPEDTAVYYCAAVHWWSSSLGMYYWGQGSQVTVSS | low polyreactivity
21 | QVQLVESGGGLVQAGGSLRLSCAASGSIFVSNAMGWYRQAPGKERELVAAISYSTSRTYYADSVKGRFTISRDNAKNTVYLQMNSLKPEDTAVYYCAVRVRVADGRSNYWGQGTQVTVSS | high polyreactivity
22 | QFQLVESGGGLVQAGGSLRLSCAASGRIFVINAMGWYRKATGIETELVAAISSSGGSTSYADSVKGRFTISRDNAKNTVYLQMNSLKPEDTAVYYCADKPRVRRDDGYYWGQGTLVTVSS | high polyreactivity

Row | Sequence | polyreactivity (PSR sort gate)
23 | QVQLVESGGGLVQAGGSLRLSCAASGSTFLDNAMGWFRQAPGKERELVAAITSGDSTKYADSVKGRFTISRDNEKNTVYLQMNSLKPEDTAVYYCAADVGRNKMDYWGQGTQVTVSS | low polyreactivity
24 | QVQLVESGGGLVQAGGSLRLICAASGLTFFSYAMGWYRQATGKEREFVAAITRRGGRTYYADSVKGRFTISRENANNTVYLQMNSLKPEDTAVYYCNAVPVLISVYRMEYWGQGTQVNVSS | high polyreactivity
25 | QVQLQESGGGLVQEGGSLRLTCAASGNISPPADMGWYRQAPGKERELVASIGTGGTTNYADSVKGRFTISRDNAKNTVYLQMNSLKPDDTAVYYCAAVRYEYNPYDYWGQGTQVSVSS | low polyreactivity
26 | QVQLVESGGGLVQAGGSLRLSCAASGSTFYYNAMGWYRQAPGKERELVAAIRTSGGRTYYADSVKGRFTISRDNAKNTVYLQMNSLKPEDTAVYYCAADGTAVHYTYDYWGQGTQVTVSS | low polyreactivity
27 | QVQLVESGGALVQAGGSLRLSCAASGLIFTAYAMGWYRQAPGKERELVAAIDWRGGSTSYADSVKGRFTISRDTAKNTVYLQMNSLKPEDTAVYYCAADYYSKYVRFGYWGQGTQVTVSS | high polyreactivity
28 | QVQLVESGGGLVHAGGSLRLSCAASGRTFWSYSMGWYRQAPGKEREFVAAISRRGGITYYADSVKGRFTISRDNAKTTVYLQMNSLKPEDTAVFYCAKGALSYYGGQVKYDYWGQGTQVTVSS | high polyreactivity
29 | QVQLVESGGGLVQAGGSLRLSCAASGSTFKRNAMGWSRQAPGKEWELVAAITFSGATTYYADSVKGRFTISRDNAKNTVYLQMNSLKPEDTAVYYCATKAYTTGRYYWGQGTQVTVSS | high polyreactivity
30 | QVQLVESGGGLVQAGGSLRLSCAASGSIFGGYAMGWYRQAPGKERELVAAISYRGASTYYADSVKGRFTISRDNAKNTVYLQMNSLKPEDTAVYYCAVAARTRARVLYGYDYWGQGSQVTVSS | low polyreactivity
31 | QVQLVESGGGLVQAGGSLRLSCAASGSILYRYAMGWYRQAPGKERELVAAITRSGGSTYYADSVKGRFTITRDNAKNTVYFQMNSLKPEDTAGYYCARQRKVSAHSIEMDYWGQGTQVTVSS | low polyreactivity
32 | QVQLVESGGGLVQAGGSLRLSCAASGRTFAGYVMGWYRQAPGKERELVAAISTSGGSTYYADSVKGRFTISRDNAKNTVYLQMNSLKPEDTAVYYCNVYLKHRYYNQMDYWGQGTQVTVSS | high polyreactivity
33 | QVQLVESGGGLVQAGGSLRLSCAASGRIFDLYTMGWYRQAPGKERELVAAISSSGGSTYYADSVKGRFTISRDNARNTVYLQMNSLKPEDTAVYYCNADWYYAGYGYWGQGTQVTVSS | low polyreactivity
34 | QVHLVESGGGLVQAGGSLRLSCAASGRIIWNYAMGWYRQAPGKERELVASINRSGGTTYYADSVKGRFTISRDNAKNTVYLQMNSLKPEDTAVYYCNTVYYGNFYSTRYDYWGQGTQVTVSS | high polyreactivity
35 | QVQLVESGGGLVQAGGSLRLSCAASGRIFFVNAMGWYRQAPGKERELVAAISRGGSTNYADSVKGRFTISRDNAKNTVYLQMNSLKPEDTEVYYCNADGSSYWYPVPLDGGDYWGQGTQVTVSS | low polyreactivity
36 | QVQLVESGGGLVQAGGSLRVSCAASGFTFRGYAMGWYRQAPGKERELVAAIRRGVITNYADSVKGRFTISRDNAKNTVYLQMNSLKPEDTAVYYCAAGNITPYRYYHGYYQSIYDYWGQGTQVTVSS | low polyreactivity
37 | QVQLVESGGGLVQAGGSLRLSSAASTYLRLLMLWDGIDRRLGQIGSWLPLLTLVVNSTYYADSVKGRFTISRDNAKNTVYFQMNSLKPEDTAVYYCNVDPYGTYARTHLEYWGQGTQVTVSS | low polyreactivity
38 | QVQLVESGGGLVQAGGSLRLSCAASGLTFWGYAMGWYRQAPGKEREFVASISSGGGSTYYADSVKGRFTMSRDNAKNTVYLQMNSLKPEDTAVYYCNAYRTKYRNQYTYATFDYWGQGTQVTVSS | low polyreactivity
39 | QVQLVESGGGLVQAGGSLRLSCAASGRTFFIYAMGWYRQAPGKERELVAAIRWRGGSTYYADSVKGRFTISRDNAKNTVYLLMNSLKPEDTAVYYCAASTRQARYEDYYWGQGTQVTVSS | high polyreactivity
40 | QVQLVESGGGLVQAGGSLRLSCAASGSTLVYYDMGWYRQAPGKEREFVAAITISGGRTYYADSVKGRFTISRDNAKNTVYLQMNSLKPEDTAVYYCAADTDRRSPFDYWGQGTQVTVSS | high polyreactivity
41 | QVQLVVSGGGLVQAGGSLRLSCAASGRTFYRYAMGWYRQAPGKEWELVAAISASGGITYYADSVKGRFTISRDNAKNTVYLQMNSLKPEDTAVYYCKAVWRKTEYDYWGQGTQVTVSS | high polyreactivity
42 | QVQLVESGGGLVQAGGSLRLSCAASGFIFGWSGMGWYRLAPGKERELVAAITGSGVRTYYAASVKGRFTISRDNAENTVYLQMNRLKPEDTAVYYCARAGGYVGRGYKDQDGRGDYGGQGTQVTVSS | high polyreactivity
43 | HAQLQESGVGLVQAGGSLRRSCAASGSIFRFSGMGWYRRATGKERELVASIGFGSITYYADRVKVRFTISRDNANNTVYLQMTSLKPEDTAVYYCAVQVQDESWLDYWGQGTQVTVSC | low polyreactivity
